Results taken from US20170056327A1 (The Methodist Hospital, priority 2015, published 2017).

Experiments:
[1] = system: BRAF, phosphor-BRAF, MEK, phosphor-MEK, ERK, phosphor-ERK in A375 melanoma cells; assay: Western blot of BRAF pathway proteins after treatment; assay type: cell-based, human; details: delivered by composite with single cargo; siRNA 100 nM, docetaxel 100 nM
Method: The size and zeta potential of the particles were measured by the Zetasizer Nano (Malvern Instruments). The SEM characterization was shown on an ultra-high resolution scanning electron microscope (SEM 230, NovaNano, Hillsboro, Oreg., USA). Western blots were performed using standard protocols on 4%-15% Bio-Rad Mini-Protean TGX Precast Gels (Bio-Rad, Hercules, Calif., USA).

[2] = biological target: MMP2 substrate peptide … (SEQ ID NO:1); assay: cell-based or functional assay
[3] = system: T1, MMP2 substrate peptide AGFSGPLGMWSAGSFG (SEQ ID NO:1)
T1 sequence: AGFSGPLGMWSAGSFG

Chain of matrix metalloproteinase-2 (MMP-2) enzyme (P08253 110-660): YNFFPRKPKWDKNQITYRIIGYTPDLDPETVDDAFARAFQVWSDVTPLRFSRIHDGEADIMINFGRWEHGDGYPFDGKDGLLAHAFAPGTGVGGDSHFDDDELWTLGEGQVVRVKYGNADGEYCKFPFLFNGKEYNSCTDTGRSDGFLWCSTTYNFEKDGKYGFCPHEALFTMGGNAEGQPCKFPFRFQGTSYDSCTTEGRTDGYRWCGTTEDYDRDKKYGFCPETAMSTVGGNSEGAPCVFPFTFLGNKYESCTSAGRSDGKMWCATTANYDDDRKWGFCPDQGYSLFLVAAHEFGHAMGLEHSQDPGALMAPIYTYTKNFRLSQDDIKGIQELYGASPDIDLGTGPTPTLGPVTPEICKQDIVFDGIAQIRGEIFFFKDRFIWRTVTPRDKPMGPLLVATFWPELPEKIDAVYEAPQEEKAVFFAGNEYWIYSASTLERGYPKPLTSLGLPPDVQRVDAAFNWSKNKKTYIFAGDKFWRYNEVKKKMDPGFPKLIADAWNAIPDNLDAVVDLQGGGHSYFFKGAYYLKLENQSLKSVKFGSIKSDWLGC

cellular uptake in A375 cells of stimuli-release particles (MSV/Peptide NPs) relative to non-stimuli-release particles (MSV/NPs), medium with 2 ug/mL MMP2, 6-hrs' incubation [2] [fold]	cellular uptake in A375 cells of stimuli-release particles (MSV/Peptide NPs) relative to non-stimuli-release particles (MSV/NPs), medium with 2 ug/mL MMP2, 24-hrs' incubation [2] [fold]	Compound	effect on protein expression of BRAF pathway [1]	coumarin 6 released into buffer within 6 hrs from MSV/Peptide NPs with MMP2 enzyme (2 ug/mL); without MMP2 cleavage only about 40% was released [3]
		5′-GCUACAGAGAAAUCUCGAU-3′ (listed as RNA, chemistry not given here) [BRAF siRNA]	knockdown BRAF expression and its related phosphor-proteins downstream	
		CC(=O)O[C@@]12CO[C@@H]1C[C@H](O)[C@@]1(C)C(=O)[C@H](O)C3=C(C)[C@@H](OC(=O)[C@H](O)[C@@H](NC(=O)OC(C)(C)C)c4ccccc4)C[C@@](O)([C@@H](OC(=O)c4ccccc4)[C@H]21)C3(C)C [docetaxel]	decreased the expression of BRAF, phosphor-BRAF and phosphor-MEK, but increased the expression of phosphor-ERK	
1.2	1.5	matrix metalloproteinase-2 (MMP-2) enzyme		about 80% of the coumarin 6 was released
